{
  "source": "patent US20230113734A1",
  "target": "SARS-CoV-2 S protein (spike protein) (SARS-CoV-2) (UniProt P0DTC2)",
  "assay": "ELISA, S proteins on plate (the reference itself)",
  "data": [
    {"substance": "positive control antibody (CR3022)", "values": [
      {"measurement": "Binding ability (relative to positive control antibody)", "result": 1}
    ]}
  ]
}
